Positions count from the first letter of the chain named.

For this assay, the target named is light activated unphosphorylated rhodopsin (UniProt P02699 1-348, retinal chromophore, light-activated). The experiment in a line: dissociation of the complex after dilution.
Chain of light activated unphosphorylated rhodopsin (P02699 whole entry): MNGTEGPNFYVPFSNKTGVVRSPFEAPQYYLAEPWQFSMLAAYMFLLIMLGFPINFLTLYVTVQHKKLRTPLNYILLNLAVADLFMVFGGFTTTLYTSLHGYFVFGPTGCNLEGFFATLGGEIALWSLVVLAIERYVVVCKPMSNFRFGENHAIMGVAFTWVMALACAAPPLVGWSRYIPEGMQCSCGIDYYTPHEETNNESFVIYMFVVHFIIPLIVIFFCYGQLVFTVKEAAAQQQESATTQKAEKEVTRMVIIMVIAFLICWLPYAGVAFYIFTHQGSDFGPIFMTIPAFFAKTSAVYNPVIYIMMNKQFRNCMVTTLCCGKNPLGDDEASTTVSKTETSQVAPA

B1: arrestin1 2A-3A-h3A (natural protein, bovine, UniProt P08168 1-404, looked up)
chain: MKANKPAPNHVIFKKISRDKSVTIYLGKRDYIDHVERVEPVDGAVAVDPELVKGKRVYVSLTCAFRYGQEDIDVMGLSFRRDLYFSQVQVFPPVGASGATTRAQESAIKKAGANTYPFLLTFPDYLPCSVMLQPAPQDVGKSCGVDFEIKAFATHSTDVEEDKIPKKSSVRLLIRKVQHAPRDMGPQPRAEASWQFFMSDKPLRLAVSLSKEIYYHGEPIPVTVAVTNSTEKTVKKIKVLVEQVTNVVLYSSDYYIKTVAAEEAQEKVPPNSSLTKTLTLVPLLANNRERRGIALDGKIKHEDTNLASSTIIKEGIDKTVMGILVSYQIKVKLTVSGLLGELTSSEVATEVPFRLMHPQPEDPDTAKESFQDENAAAEEFARQNLKDAGEYKEEKTDQEAAMDE
modifications: [3H]leucine and [14C]leucine incorporated
Regarding B1, the “half-life of the complex (t1/2)” value was 1.2 ± 0.117 h.

B2: arrestin1 h3A on the background of the 3A mutation (natural protein, bovine, UniProt P08168 1-404, looked up)
chain: B1 chain with A44V, A46L
modifications: [3H]leucine and [14C]leucine incorporated
Regarding B2, the “half-life of the complex (t1/2)” value was 1.28 ± 0.15 h.

The values above are taken from publication PMC2787876 (Journal of molecular biology, 2009).
